According to publication PMC11088704, “Structural basis for the regulation of plant transcription factor WRKY33 by the VQ protein SIB1” (Communications Biology, 2024):

What was measured:
[1] = target: WRKY33_C;SIB1 (SIB1 11-100) (Arabidopsis thaliana;Arabidopsis …, UniProt Q8S8P5;Q9LDH1 345-422;11-100, |); assay: EMSA; SIB1:WRKY33_C 2:1; ternary complex; Kd not fittable; EMSA: NMR buffer (composition not given in material) with 100 mM NaCl, 1.0 ng dsDNA in 20 ul, room temperature 20 min, SIB1:WRKY33_C 2:1; gel in 0.5x TBE, GelRed stain; conditions: protein: recombinant;recombinant; tags: C-terminal 6xHis;C-terminal 6xHis; copies: 1;1; blunt
WRKY33_C;SIB1mini = WRKY33_C;SIB1mini (Arabidopsis thaliana;Arabidopsis …, UniProt Q8S8P5;Q9LDH1 345-422;46-69, |); assay: EMSA; SIB1mini present; Kd not fittable; EMSA: NMR buffer (composition not given in material) with 100 mM NaCl, 1.0 ng dsDNA in 20 ul, room temperature 20 min, SIB1:WRKY33_C 2:1; gel in 0.5x TBE, GelRed stain; conditions: tags: C-terminal 6xHis;; copies: 1;1; blunt
Sequence of WRKY33_C;SIB1mini (Q8S8P5 345-422, chain 1 of 2): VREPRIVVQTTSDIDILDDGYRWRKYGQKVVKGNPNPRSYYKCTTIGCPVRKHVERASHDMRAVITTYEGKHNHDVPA
Sequence of WRKY33_C;SIB1mini (Q9LDH1 46-69, chain 2 of 2): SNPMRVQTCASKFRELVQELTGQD

Sequence of WRKY33_C;SIB1 (SIB1 11-100) (Q8S8P5 345-422, chain 1 of 2): as the sequence (Q8S8P5 345-422, chain 1 of 2) above
Sequence of WRKY33_C;SIB1 (SIB1 11-100) (Q9LDH1 11-100, chain 2 of 2): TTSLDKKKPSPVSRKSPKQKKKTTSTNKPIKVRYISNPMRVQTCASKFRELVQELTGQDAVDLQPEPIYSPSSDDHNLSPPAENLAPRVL

B1: W-box DNA (dsDNA)
DNA 1: AAAGTTGACCAA
DNA 2: TTGGTCAACTTT
For B1, the binding signal [1] was ~95 % DNA bound at 1:1 molar ratio (WRKY33_C alone ~80%) and the binding signal (WRKY33_C;SIB1mini) was ~95 % DNA bound at 1:1 molar ratio (WRKY33 alone ~80%).
